{"source": "paper PMC4703963", "binders": {"B1": {"name": "Prolyl hydroxylase domain protein 2 (PHD2), endogenous, Q9GZT9 1-426 (natural protein)", "chain": "MANDSGGPGGPSPSERDRQYCELCGKMENLLRCSRCRSSFYCCKEHQRQDWKKHKLVCQGSEGALGHGVGPHQHSGPAPPAAVPPPRAGAREPRKAAARRDNASGDAAKGKVKAKPPADPAAAASPCRAAAGGQGSAVAAEAEPGKEEPPARSSLFQEKANLYPPSNTPGDALSPGGGLRPNGQTKPLPALKLALEYIVPCMNKHGICVVDDFLGKETGQQIGDEVRALHDTGKFTDGQLVSQKSDSSKDIRGDKITWIEGKEPGCETIGLLMSSMDDLIRHCNGKLGSYKINGRTKAMVACYPGNGTGYVRHVDNPNGDGRCVTCIYYLNKDWDAKVSGGILRIFPEGKAQFADIEPKFDRLLFFWSDRRNPHEVQPAYATRYAITVWYFDADERARAKVKYLTGEKGVRVELNKPSDSVGKDVF"}, "B2": {"name": "Wild-type HA-PHD2 purified from HEK293T cells, Q9GZT9 1-426 (natural protein)", "chain": "B1 chain"}, "B3": {"name": "Flag-tagged PHD2 purified from HEK293T cells, Q9GZT9 1-426 (natural protein)", "chain": "B1 chain"}, "B4": {"name": "Flag-tagged PHD2 (with an HA-tagged copy of PHD2 in the co-immunoprecipitation), Q9GZT9 1-426 (natural protein)", "chain": "B1 chain"}, "B5": {"name": "Flag-tagged catalytic domain of PHD2 (181-426), Q9GZT9 181-426 (domain or fragment)", "chain": "PNGQTKPLPALKLALEYIVPCMNKHGICVVDDFLGKETGQQIGDEVRALHDTGKFTDGQLVSQKSDSSKDIRGDKITWIEGKEPGCETIGLLMSSMDDLIRHCNGKLGSYKINGRTKAMVACYPGNGTGYVRHVDNPNGDGRCVTCIYYLNKDWDAKVSGGILRIFPEGKAQFADIEPKFDRLLFFWSDRRNPHEVQPAYATRYAITVWYFDADERARAKVKYLTGEKGVRVELNKPSDSVGKDVF"}}, "conditions_in_all_cases": "remark: other sources report otherwise", "key": {"[1]": {"target": "Prolyl hydroxylase domain protein 2 (PHD2), endogenous (human (endogenous in U2OS, H2030, A549)), Q9GZT9", "experiment": "non-reducing SDS-PAGE with immunoblot; total cell lysates (1% IGEPAL, 150 mM NaCl, 50 mM Tris-HCl pH 7.9, no reducing agent) in sample buffer without β-ME; cells treated with H2O2 (50-200 uM), T-hydro (1-3 uM), diamide (0.1-1 mM), 10% FBS or expressing H-ras V12"}, "[2]": {"target": "Wild-type HA-PHD2 purified from HEK293T cells (human), Q9GZT9", "experiment": "non-reducing SDS-PAGE with immunoblot; tagged PHD2 affinity-purified (Flag or HA gel, peptide elution) from H2O2-treated HEK293T cells, run without DTT"}, "[3]": {"target": "Flag-tagged PHD2 purified from HEK293T cells (human), Q9GZT9", "experiment": "non-reducing SDS-PAGE with immunoblot; tagged PHD2 affinity-purified (Flag or HA gel, peptide elution) from H2O2-treated HEK293T cells, run without DTT"}, "[4]": {"target": "Flag-tagged PHD2 (with an HA-tagged copy of PHD2 in the co-immunoprecipitation) (human), Q9GZT9", "experiment": "non-reducing SDS-PAGE with immunoblot; total cell lysates (1% IGEPAL, 150 mM NaCl, 50 mM Tris-HCl pH 7.9, no reducing agent) in sample buffer without β-ME; cells treated with H2O2 (50-200 uM), T-hydro (1-3 uM), diamide (0.1-1 mM), 10% FBS or expressing H-ras V12"}, "[5]": {"target": "Flag-tagged catalytic domain of PHD2 (181-426) (human), Q9GZT9", "experiment": "non-reducing SDS-PAGE with immunoblot; total cell lysates (1% IGEPAL, 150 mM NaCl, 50 mM Tris-HCl pH 7.9, no reducing agent) in sample buffer without β-ME; cells treated with H2O2 (50-200 uM), T-hydro (1-3 uM), diamide (0.1-1 mM), 10% FBS or expressing H-ras V12"}}}
{"binder": "B1", "values": [{"measurement": "stoichiometry N", "setting": "[1]", "result": 2}]}
{"binder": "B2", "values": [{"measurement": "stoichiometry N", "setting": "[2]", "result": 2}]}
{"binder": "B3", "values": [{"measurement": "stoichiometry N", "setting": "[3]", "result": 2}]}
{"binder": "B4", "values": [{"measurement": "stoichiometry N", "setting": "[4]", "result": 2}]}
{"binder": "B5", "values": [{"measurement": "stoichiometry N", "setting": "[5]", "result": 2}]}
